Laboratory results: the DeepSol protein solubility set

Test: soluble on expression in E. coli; label from the status in PepcDB or PDB records
With “MGSDKIHHHHHHMVKYSGVCILFGAGGGGENALSLLKLEGCNISAIVDNDLKKHNTFLDDTPIYAPEKLNCDLIFDKILIASGYSKSILAQLGQYNISQERIIVLPQYYLKPNRFSDQVLYSLAWDFIFSFSELMNKLNIRYWLDYGTLLGLVRDNDLISWDSDLDFCILDENKGYLINSFSVISEHISSTIGCDVKIELIKGAECEHSRVFISCNRDNVILDIDVFIKFNFSNFVCLEVMDRVERYNAEHYVAVDFLNVKGISLPVPNKYDQYLTRVYGSWCVANKEWTLYS” the “soluble on expression in E. coli” value was “not soluble”.
With “MGSDKIHHHHHHMPVNIKQLAQEFDKKEIGITQGHRLCPGCGAPITVKFVMMIARHLGYEPVVGLATGCLEVSTSIYPYTAWSVPYIHNAFENVAATMSGVETAYKALKNKGKIPEDKKYAFIAFGGDGGTYDIGLQSLSGMLERGHKVLYVLYDNEGYMNTGNQRSGSTPPGSDTTTAPVGKKLPGKVQLKKNIVEIVAAHENVYAATASLSEPMDFFAKVEKALNFDGPSFLAVFSPCVRFWRVNDDKTVEISKLAVETKYWPLYEVERGVYRVTRKPRQFKPVEEFLKAQGRFRKLLSRPDAKEIVDELQEYVDRRWERLLTLEEVTKDKPIR” the “soluble on expression in E. coli” value was “not soluble”.
With “MGSDKIHHHHHHMMPELKSALYAGKVMHQRLKPRRHRLSYRIFFLLLDLDEIDAMSKRLRLLSHNRFNLFGFADADHGDGSGGSLKAYVEDMLKTAGIETDAGPIRLLSMPRMLGYAFNPISIYFCHSRQGDLVAILYEVNNTFGQRHSYLIPVGERHDETVRQHCDKRFYVSPFMAMGLNYRFRIGLPGENVAIHITASDDQGPLMVASFAGKRRALSDASLLRAFISYPLLTLKVTAGIHWEALRLWAKGIRLQERPAPPHNSITHVAMHGRLRRKAEPDVI” the “soluble on expression in E. coli” value was “not soluble”.
In the case of “SNAMSRAKKWVQYFLSHRHVTMELIHKIDEAHYDYKPTPTSMTAKQLATHMLFSFYNFANTAKHGDPSLFRQKIEEPETNLAKLAETYTEKTRQLIESMSDDDFDRTLDLTAIFGTQMSTAQFLQLAMDHEIHHKGQLFVYVRGMGHTDLPLFVKRG”, the “soluble on expression in E. coli” value is reported as “soluble”.
With “ERVVINISGLRFETQLKTLAQFPETLLGDPKKRMRYFDPLRNEYFFDRNRPSFDAILYYYQSGGRLRRPVNVPLDIFSEEIRFYELGEEAMEMFREDEG” the “soluble on expression in E. coli” value was “soluble”.
With “SEAVLTEELDEEEQLLRRHRKEKKELQAKIQGMKNAVPKNDKKRRKQLTEDVAKLEKEMEQKHREELEQLKLTTKENKIDSVAVNISNLVLENQPPRISKAQKRREKKAALEKEREERIAEAEIENLTGARHMESEKLAQILAARQLEIKQIPSDGHCMYKAIEDQLKEKDCALTVVALRSQTAEYMQSHVEDFLPFLTNPNTGDMYTPEEFQKYCEDIVNTAAWGGQLELRALSHILQTPIEIIQADSPPIIVGEEYSKKPLILVYMRHAYGLGEHYNSVTRLVNIVTENCS” the “soluble on expression in E. coli” value was “soluble”.
In the case of “MSAKREFSHITLASTPFKKRIDQNSLKTDSDIEKDTNIAHKCAERFNYNTNLHRKVTLSDRFELAALGYEMKAKPRTIIEKHNDCDEFHFIYRKEKKNDYGTGSPLSAGLSLSNPLPAGRGFLSPAIQNTSNQFTFSGSPRITPQKHTPVSANHKPARSIFDDIPSNIA”, the “soluble on expression in E. coli” value is reported as “not soluble”.
For “MGSDKIHHHHHHMKKKFQLEVPGGADKVLLHTCCAPCSSAIIECLMQHGVTPVIYYCNPNIYPLEEYIIRKDECTRYAQSLGLEIIDADYDHDAWRCRMAGMEQEPERGGRCLRCFKMRLQETARYAHEHGFPVITTTLASSRWKSLEQIEEAGRYATAPYPDVTYWEQNWRKGGLSERRIAIIKEYNFYNQQYCGCEFSMRKEEKGG”, the “soluble on expression in E. coli” value was “not soluble”.
With “GSPGIPGSTRMAYQHCPFDTLLILDFETTSDAANQDYPCEVIQFAIVAYDVPNDKIREDISFNKYVKPVLNRTLTKNCVDFTGIPQRSIDTADTFDVVYEQFQQWLITLGLEEGKFAFVCDSRQDLWRIAQYQMKLSNIQMPAFFRQYINLYKIFTNEMDRMGPKELSATTNIGKMNEYYDLPTIGRAHDAMDDCLNIATILQRMINMGAKVTVNELLTCCASWRRQPLVYNKEWRSSFMDAGKIFERVLPLVVTTIRAGDFRLEMYGVCRYCRKGMDVCGTSHQQTPHDLYKNEEDPIHFAKIAGYY” the “soluble on expression in E. coli” value was “soluble”.
For “MGILETLVLKEKINGTEKAVIFRELIKKEMELLNDYCAKNHLFPKDYRIEFCHLHNIKKVNIARLLTILKYYDPRFIEILMSTDPKVRTFIQYFMEFLEKHPYFEDVLEPQNLFGNWDYIRYKLKILFPQLTFEEIDRFKFKRKEFINYVKEKLGEPEELIEDKLNLATWYESVPYLELESEMTPGVHPDPVMTPEEWSFIKRHIKGRKNIIIRDPDTGKEKLVYVEVDIPDEELDKYYKNREGLKKLLMERYNIDESGAEQILRKAGWEATGWHIVPPVHTDVEVVYPEEEKKEEKKVEVKREPFDIMELAKHIRYLGGRELEMLNYYELVHDKVPEIHEKLHMFMRTKRRLLGKLFGIYYTVDPVMAEAILINDPENIELLKSLTISTGLRDKKFSIYDSSKVWNEIKRRVRFIFPEVSEEEIEKFKGKRSEFVTYLAQKLGKPEEYIDERLERAGWLRSEEIPAFIRHVGP”, the “soluble on expression in E. coli” value was “not soluble”.
For “MRGSHHHHHHGMASMSVSTASTEMSVRKIAAHMKSNPNAKVIFMVGAGISTSCGIPDFRSPGTGLYHNLARLKLPYPEAVFDVDFFQSDPLPFYTLAKELYPGNFRPSKFHYLLKLFQDKDVLKRVYTQNIDTLERQAGVKDDLIIEAHGSFAHCHCIGCGKVYPPQVFKSKLAEHPIKDFVKCDVCGELVKPAIVFFGEDLPDSFSETWLNDSEWLREKITTSGKHPQQPLVIVVGTSLAVYPFASLPEEIPRKVKRVLCNLETVGDFKANKRPTDLIVHQYSDEFAEQLVEELGWQEDFEKILTAQ”, the “soluble on expression in E. coli” value was “soluble”.
For “MGSDKIHHHHHHMNDYYDLLDRVKILIKLGRYKEALRIIDEVIEDSPDVSFLYYKISILFTCRRFEEAKSTLNTAISIFPGSTVFRIWKMVLALETKDVLSMAQINFNDNSVASSQLNAPFQSMDFNDNYAYTFSKSVRDLIMKLGKSAIYCDLQQLKEKILTERISTETINGLYTDIMDYRNRDIVELSSYGRAFYFYSIGRIGDSFIEISSLPDHEVFKAFILGKYSDFLKQTYEIADPYTRAVRFHILRLRELSLKEIETASYIGMDELVMSKRIIEFNGSSLSTQVVVNKVPESHL”, the “soluble on expression in E. coli” value was “not soluble”.
In the case of “MPQNQSDRLKPKGSGDGPLGTALGRGAGVASDLWRRIRTRALSAIGPEAEAQLYEVHKEWLGDLSGKKVLEIGGGSPLSPWLADTARTYHAVSADPAELEALKVRLGEGRTARLIEADPMSGAFRETGYDVIYLHSVLHRMADRGPFLDRLLKKLAIEGRVVTTDPADGGALTRLVRTIDRPFRAESLPDHPVTEELKAELAERFYLINCVAPFRLGKAALVLGALHPELGRRVSERLIAADLKDRAAFNRLNASLQVSFLLGAPD”, the “soluble on expression in E. coli” value is reported as “not soluble”.
For “QTSAVQQKLAALEKSSGGRLGVALIDTADNTQVLYRGDERFPMCSTSKVMAAAAVLKQSETQKQLLNQPVEIKPADLVNYNPIAEKHVNGTMTLAELSAAALQYSDNTAMNKLIAQLGGPGGVTAFARAIGDETFRLDRTEPTLNTAIPGDPRDTTTPRAMAQTLRQLTLGHALGETQRAQLVTWLKGNTTGAASIRAGLPTSWTAGDKTGSGDYGTTNDIAVIWPQGRAPLVLVTYFTQPQQNAESRRDVLASAARIIAEGL”, the “soluble on expression in E. coli” value was “soluble”.
With “MGSDKIHHHHHHMTLLDEAVVLNDGSLMPKVGVVVGNKPADDAIKAGYRLIDCSLDQKTKLKAENPQLYVEVQVPEDVITRDDFKKIRQDIIDHHADLCLLKLSDNKEKNGQIWQELEQLKIQGWIKNIGVINISVDALNELLNHTQVRPCVAQISYEDQGLINLARENRIQVEIPVHGDINALAEIASHYGTSSVELVMRYFSQKGIVPLFEIEDVVENPRINFTINAEDLATIGQLFAQK” the “soluble on expression in E. coli” value was “not soluble”.
For “MGSDKIHHHHHHMENILEIVNLNKSYNGIPALSNINLSVKAGEIHGIVGANGSGKTTLMNILFGNPIIHETGGYQGQIFFKGNRVNFKNCAEAIRQGIGMVHQEFALIPDMTVGENIKLGRENTHSLTDRLFGRKYSFIDWKQDYENAWQTLKRLGISVAVGIKIMDLSVNIRQFIEIAREIDRSDLKLLILDEPTAVLNKNDGLKLIEILKDMSNSEIGIIFISHRLEEVQYVCDKVSVLRDGKLVSQYAKGNIYVNDLAQDMIGHTINKAAAEKREIKNKPLITFKDFSVEMPGEEVKNLNLSVYKGEILGLTSLSGHGKLALGYGMMDMYPVDGEVYYENKKIVKMNARTNIIKGMYVLPDDRQGLGILADQSLESNIVFTGNQIKNMFIRNSAFNFLGFIDHHKTNLHVYKMMLDLDIKCTSIKQKVKELSGGNQQKVCIARALTVDPKLLFVAEPTRGIDISAKEKILNMLIEINRTRNTTIIIASSELDELKRVCDRIAVMVEGKIFKILSPDSPDVDFGLVLSGEEEVDCEKL”, the “soluble on expression in E. coli” value was “not soluble”.
For “MGHHHHHHSHMSAPIVDAPAAEIVYKIISSDGVVSKMSEKAVQQSKTLSNLIENLGYTIENIETRDPIPVTNVNGKTMAKVAEWCEKHKADAIPEDNMNVLKTLTIPEWDQKFLKIEDEALFDLILASNFLDIKGLMYFGCKTVSNMAKGKTTAELREIFGINTDEQDAAEETAQRAAAEVA”, the “soluble on expression in E. coli” value was “soluble”.
With “SPEFMVKAKSWTLKKHFQGKPTQSDFELKTVELPPLKNGEVLLEALFLSVDPYMRIASKRLKEGAVMMGQQVARVVESKNSAFPAGSIVLAQSGWTTHFISDGKGLEKLLTEWPDKLPLSLALGTIGMPGLTAYFGLLEVCGVKGGETVLVSAAAGAVGSVVGQIAKLKGCKVVGAAGSDEKIAYLKQIGFDAAFNYKTVNSLEEALKKASPDGYDCYFDNVGGEFLNTVLSQMKDFGKIAICGAISVYNRMDQLPPGPSPESIIYKQLRIEGFIVYRWQGDVREKALRDLMKWVLEGKIQYHEHVTKGFENMPAAFIEMLNGANLGKAVVTA” the “soluble on expression in E. coli” value was “soluble”.
In the case of “INMEEIREFAKNFKIRRLSLGLTQTQVGQAMTATEGPAYSQSAISRFEKLDITPKSAQKLKPVLEKWLNEAELRNQEGQQNLMEFVGGEPSKKRKRRTSFTPQAIEALNAYFEKNPLPTGQEITEMAKELNYDREVVRVWFSNRRQTLKNT”, the “soluble on expression in E. coli” value is reported as “soluble”.
With “GMTKIRKIAVFIEETRIEAGREISPPTRKAVAVAVIENPFAGRYVEDLTELMDTGAELGALLGERCVQALGIRPEQAESYGKSAMVGENGELEHAAAILHPKLGAPLRKAVEKGAALVPSSKKMGSPGQVLDVPLGHKDAAYVRSHFDGIEVRLNDAPRANEIMVAVAVTDSGRPLPRVGGLTHDAAEGKDGLR” the “soluble on expression in E. coli” value was “soluble”.
With “MTYKYNCCDDGSGTTVGSVVRFDNVTLLIDPGWNPSKVSYEQCIKYWEKVIPEIDVIILSQPTIECLGAHSLLYYNFTSHFISRIQVYATLPVINLGRVSTIDSYASAGVIGPYDTNKLDLEDIEISFDHIVPLKYSQLVDLRSRYDGLTLLAYNAGVCPGGSIWCISTYSEKLVYAKRWNHTRDNILNAASILDATGKPLSTLMRPSAIITTLDRFGSSQPFKKRSKIFKDTLKKGLSSDGSVIIPVDMSGKFLDLFTQVHELLFESTKINAHTQVPVLILSYARGRTLTYAKSMLEWLSPSLLKTWENRNNTSPFEIGSRIKIIAPNELSKYPGSKICFVSEVGALINEVIIKVGNSEKTTLILTKPSFECASSLDKILEIVEQDERNWKTFPEDGKSFLCDNYISIDTIKEEPLSKEETEAFKVQLKEKKRDRNKKILLVKRESKKLANGNAIIDDTNGERAMRNQDILVENVNGVPPIDHIMGGDEDDDEEEENDNLLNLLKDNSEKSAAKKNTEVPVDIIIQPSAASKHKMFPFNPAKIKKDDYGTVVDFTMFLPDDSDNVNQNSRKRPLKDGAKTTSPVNEEDNKNEEEDGYNMSDPISKRSKHRASRYSGFSGTGEAENFDNLDYLKIDKTLSKRTISTVNVQLKCSVVILNLQSLVDQRSASIIWPSLKSRKIVLSAPKQIQNEEITAKLIKKNIEVVNMPLNKIVEFS” the “soluble on expression in E. coli” value was “soluble”.
